Assay results published in article PMC5156911, “Structural implications of Ca^2+-dependent actin-bundling function of human EFhd2/Swiprosin-1” (Scientific Reports, 2016).
No end group written: not given here.

Molecular target: the molecule itself
Assay: cross-linking; disulfide cross-linking of engineered terminal Cys residues; purified fragments on SDS-PAGE under non-reducing conditions (only a monomer band under reducing conditions)

Protein | stoichiometry N
CGGQAINVSSRFEEEIKAEQEERKKQAEEMKQRKAAFKELQSTFK (domain or fragment, human, engineered CysGlyGly at the N-terminus of the fragment; human EFhd2/Swiprosin-1 predicted coiled-coil domain, residues 199-240; source: E. coli, purified (pGEX-4T-1; GST removed by thrombin); not shown: GST, N-terminal, cleaved) [CC1: EFhd2 coiled-coil domain (residues 199-240) with CysGlyGly at the N-terminus] | 2
QAINVSSRFEEEIKAEQEERKKQAEEMKQRKAAFKELQSTFKGGC (domain or fragment, human, also: disulfide-linked dimer via Cys, human EFhd2/Swiprosin-1 predicted coiled-coil domain, residues 199-240; engineered GlyGlyCys at the C-terminus of the fragment; source: E. coli, purified (modified pET-21a, same procedure as the other EFhd2 proteins); not shown: His6, N-terminal, kept) [CC2: EFhd2 coiled-coil domain (residues 199-240) with GlyGlyCys at the C-terminus] | 2
